# Experimental data published in the supplement of paper PMC10126150.
# ± gives the standard deviation of the averaged measurements.
# System: ATP
# Assay: switch fluorescence ratio, 500 uM ATP over buffer (Cy3 cluster intensity, sum of 5 cycles each) (fold (ratio)); higher = stronger signal-on switching upon ATP binding; sequences stand for … in TCGTCGGCAGCGTCAGATGTGTATAAGAGACAGTTTTTTTTTTTTTTTTTTTTTTTTT…TC
# Conditions: aptamer strand: ATP DNA aptamer (quencher-CACCTGGGGGAGTATTGCGGAGGAAGG + anchor), 100 nM annealed; ATP concentration: 500 uM
# How it was run: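 The fluorescence ratio divides summed target-cycle Cy3 intensity by summed buffer-cycle Cy3 intensity for each cluster and is averaged per switch-domain sequence. Cy3-labelled switching-strand clusters on a modified Illumina MiSeq flow-cell were annealed to 100 nM quencher-labelled ATP aptamer, then imaged in selection buffer and again after 15 min with 500 uM ATP at 22 °C. Five such cycles were run, with NaOH stripping and re-annealing between them, and clusters outside 100-1000 RFU were excluded.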
# 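Further: ATP exposure 15 min at 22 °C before imaging.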
row,Sequence,switch fluorescence ratio
1,GAACTTAGAG,1.02 ± 0.03
2,GGTAAACAGG,1.04 ± 0.031
3,GGGACAATAT,1.02 ± 0.044
4,GTTTGCCCTT,1.06 ± 0.1
5,TTGCGGTCGT,1.002 ± 0.0023
6,GTTGGGGTGA,1.05 ± 0.02
7,GTTTTAAACA,1 ± 0.034
8,AGATGGGTGG,1.01 ± 0.025
9,TGTACGGGGA,0.995 ± 0.03
10,GGGATACCCT,0.9798 ± 0.00069
11,TATGTACGAT,1.05 ± 0.059
12,TACTGGTCCG,1.08 ± 0.074
13,CCGTTGGATT,0.983 ± 0.01
14,GCAGTAATTT,1.49 ± 0.62
15,TGTTTTGGCG,0.959 ± 0.018
16,AGTAAAAAAT,0.9891 ± 0.0066
17,CGATTCTCAA,1.021 ± 0.0006
18,TCGGAATGTT,1.02 ± 0.025
19,CGAGGTTTTC,0.9817 ± 0.0056
20,AGGCGCGCGG,0.9507 ± 0.0057
21,GAATTATCAG,0.968 ± 0.045
22,TGACGGGAAG,0.9862 ± 0.0012
23,CGGGGGATTG,0.988 ± 0.014

row,Sequence,switch fluorescence ratio
1,AATCTTGTTG,0.998 ± 0.021
2,TCATTCTGGG,1.008 ± 0.0097
3,GTTTTAGCCA,0.97 ± 0.013
4,AAATATTTAC,1.12 ± 0.11
5,GCGAAAAGGG,1.024 ± 0.0069
6,AGGTGAAATT,1.11 ± 0.1
7,GAGAGGAGTA,0.967 ± 0.037
8,CGATATATTG,0.988 ± 0.013
9,TGATTTTCCA,0.988 ± 0.021
10,ATGGGCAACT,0.99 ± 0.024
11,GCTCAAAGTT,0.99 ± 0.02
12,ACGGGCGGGC,1.29 ± 0.032
13,TACAGAATGG,0.991 ± 0.014
14,TTGGAGTCTG,0.994 ± 0.015
15,CAGTATATTG,0.995 ± 0.025
16,GAGAAAGCCC,1 ± 0.015
17,CCCGGGTAGG,1.041 ± 0.0026
18,CGTTTTTGGA,0.966 ± 0.018
19,GGGTGCGATT,1.03 ± 0.025
20,TGTTGCGCCG,0.929 ± 0.081
21,CTGGCATGTA,1.0141 ± 0.00098
22,ATAAGGCCTG,1.03 ± 0.075
23,GGTGGTGGAC,0.992 ± 0.037

row,Sequence,switch fluorescence ratio
1,CCAAGTTCTC,0.972 ± 0.021
2,AGAGGCTGGT,0.992 ± 0.017
3,TTAATGAGTG,0.99 ± 0.015
4,ATCACGCGTA,1.02 ± 0.037
5,TAGGGATTTC,0.997 ± 0.019
6,TTTGAGCCAC,1.05 ± 0.0095
7,CATGGGGCCT,0.9984 ± 0.0027
8,CGCTAGGGGG,1.06 ± 0.026
9,CCTTAGGTAT,1.011 ± 0.0094
10,GTCTTTAACT,0.982 ± 0.059
11,GGCACTTCCA,1.03 ± 0.028
12,TTGGTCGTAC,1.03 ± 0.015
13,TAGATGGGGC,0.967 ± 0.029
14,ACTTTTTTAA,1.004 ± 0.0029
15,GGAACGTTCT,0.995 ± 0.046
16,ACTGATAGAG,1.02 ± 0.065
17,CACTGGCGAT,1.06 ± 0.054
18,CGCGATATTG,1.58 ± 0.018
19,AATTGGGCTT,1.02 ± 0.043
20,GCCCCGGGGA,1.04 ± 0.011
21,TTAGTTTTGA,1 ± 0.031
22,CGTGCCCTGC,1.06 ± 0.028
23,TGTAACGAAA,1.008 ± 0.0027

row,Sequence,switch fluorescence ratio
1,AAGAGACCTT,1.28 ± 0.026
2,AATTTGAAAG,1.017 ± 0.01
3,TGGGAAGACA,1.06 ± 0.092
4,CGGGGGCGAA,0.996 ± 0.05
5,CTGCTAAGTA,1.01 ± 0.013
6,GGGCGGGGGT,1.02 ± 0.019
7,TGCTTTACGC,1.03 ± 0.03
8,TGATACTCGC,1.18 ± 0.12
9,GTCGGGATAT,1.03 ± 0.018
10,ATTTTTAAGG,0.995 ± 0.021
11,AAATTGGGAG,1.016 ± 0.0026
12,TTTAAATAT,1.03 ± 0.086
13,GAGGAGGTAT,0.973 ± 0.019
14,CCAAGTAGTA,1.03 ± 0.032
15,GGGCGCAGCG,0.978 ± 0.031
16,CTAGAAGGCG,1.02 ± 0.052
17,TTTGAGTCAT,0.9713 ± 0.0092
18,GTGGGGATGG,0.966 ± 0.024
19,TTATTCAAAA,1 ± 0.023
20,GTAAGATGTG,1.03 ± 0.028
21,GTTTTCGGGA,1.03 ± 0.013
22,AGGGGGGGAG,1.01 ± 0.053
23,GAGTACTCCT,1.04 ± 0.04

row,Sequence,switch fluorescence ratio
1,ACTACCCTCG,1.18 ± 0.065
2,GGGTGTTTAG,1.01 ± 0.027
3,GTTCCGGTCG,1.07 ± 0.098
4,TGGTCAAAGA,0.986 ± 0.015
5,TTCTGGGACT,0.999 ± 0.021
6,CCATTTGCGC,1.02 ± 0.034
7,TGGGGCGC,1.01 ± 0.097
8,TATAAAGTGG,1.03 ± 0.022
9,GAGTTAGTTA,0.989 ± 0.028
10,GGGCGCAGGG,1.01 ± 0.01
11,GTTGTTGAAG,1.009 ± 0.0011
12,AGGGTCCTAC,1.02 ± 0.047
13,ATGATCTTCG,1.038 ± 0.0053
14,TTGCTACACG,1.04 ± 0.02
15,CGTTGTTGAA,0.968 ± 0.036
16,ATTTGGAAAG,0.999 ± 0.021
17,TACATCGTTT,1 ± 0.025
18,CAGTTTTCTT,1.01 ± 0.062
19,AATTGACCGA,1.05 ± 0.013
20,GATGGAAACT,1.008 ± 0.0072
21,AGTTTTGGGG,0.981 ± 0.043
22,ATGAGTCGGA,0.975 ± 0.055
23,AATTGAAACA,0.9731 ± 0.0068

row,Sequence,switch fluorescence ratio
1,AGAACGTCTG,0.9969 ± 0.0022
2,ATGGGTTCTG,0.999 ± 0.017
3,AATTGCGGCC,0.979 ± 0.045
4,GCTCGACAAT,1.15 ± 0.14
5,TGTTGTTTGT,1.02 ± 0.026
6,CCTTTTTATT,0.9882 ± 0.0064
7,GCTGGTCGCC,1.005 ± 0.01
8,ATATTGGTGG,0.991 ± 0.042
9,GAAGGATTGT,1.02 ± 0.059
10,AAAAAATAGT,1 ± 0.019
11,GGCGATTGGG,0.99 ± 0.026
12,ACAAAGAGTC,0.9932 ± 0.0083
13,ATCGGCGATT,1.04 ± 0.024
14,TTGCGTCATT,1.03 ± 0.016
15,AGGTTAGATG,0.991 ± 0.013
16,TAGGATGTCT,1 ± 0.0021
17,TAATCGGGGG,1.04 ± 0.043
18,ACATTAGGGT,1.01 ± 0.012
19,GATAGATAGA,0.9957 ± 0.002
20,TGGGTCTGTT,1.01 ± 0.046
21,GCAATTAAAT,0.996 ± 0.036
22,ACACATGTAT,1 ± 0.045
23,TGGTACGGAG,1 ± 0.011

row,Sequence,switch fluorescence ratio
1,TATCCCGGTG,1.82 ± 0.043
2,TAGGGCTGCA,1.06 ± 0.079
3,TTAATGGTTT,1.11 ± 0.17
4,AATGTGGATA,0.984 ± 0.028
5,TTCTCTGGGG,1.025 ± 0.0071
6,AGGGCTGTGT,0.999 ± 0.046
7,TGTTTTTAGA,1.01 ± 0.019
8,CATGTAAGGC,1.03 ± 0.021
9,GCAGGAGTTG,0.978 ± 0.087
10,TTCAGCAATT,1.57 ± 0.31
11,CAAGGGGGCC,1.14 ± 0.18
12,CGAAATGCGG,0.982 ± 0.036
13,AGTGTACTCG,1.04 ± 0.056
14,TTGAGTTTAT,1.02 ± 0.12
15,TCGACCATCG,0.974 ± 0.033
16,GAATGTTCTG,0.996 ± 0.052
17,CACATGCTCG,1.05 ± 0.076
18,TGATAGTAGT,1 ± 0.025
19,GAGTGATTTA,1.01 ± 0.035
